Data on 18 molecules can be found in US20240116985A1 (published 2024).

Starred links: 1 amine or outer side, 2 acyl side, 3 side chain; linkers in the order of their positions; H or OH if unused. Positions of bridges follow the written chain, without caps; N, C: chain ends. Non-standard residues stand in square brackets, D forms with d. Primed or numbered codes have the meaning given here. B5(16) = 2-amino-2-(pent-4-en-1-yl)hept-6-enoic acid = 2,2-bis(4-pentenyl)glycine (stitching residue), C=CCCCC(CCCC=C)(N[*:1])C(=O)[*:2]; B5(9) = 2-amino-2-(pent-4-en-1-yl)hept-6-enoic acid (2,2-bis(4-pentenyl)glycine), C=CCCCC(CCCC=C)(N[*:1])C(=O)[*:2]; Bta = N[C@@H](Cc1csc2ccccc12)C(=O)O; αAllylPro = C=CC[C@@]1(C(=O)O)CCCN1; S8 = C=CCCCCCC[C@](C)(N)C(=O)O

B1: I-618 (peptide)
peptide: XDLXDEAAFTXFXH
modifications: not fully specified; Ac-PL3-Asp-Leu-B5-Asp-Glu-Ala-Ala-Phe-Thr-S8-Phe-BztA-His-NH2; N-terminal acetyl, C-terminal amide; non-natural PL3 (1), B5 (4), S8 (11), BztA (13); staples PL3-B5 and B5-S8 by olefin metathesis
notes: Stapled peptide; Later-eluting staple isomer composition
B2: I-637 (peptide)
peptide: XDIXDEAAFQXFXP
modifications: not fully specified; Ac-PL3-Asp-Ile-B5-Asp-Glu-Ala-Ala-Phe-Gln-S8-Phe-BztA-Pro-NH2; N-terminal acetyl, C-terminal amide; non-natural PL3 (1), B5 (4), S8 (11), BztA (13); staples PL3-B5 and B5-S8 by olefin metathesis
notes: Stapled peptide; Earlier-eluting staple isomer composition
B3: I-643 (peptide)
peptide: Ac-[αAllylPro]DI[B5(9)]DEAAFQ[S8]F[Bta]W-NH2
modifications: staple 1-4, 4-11
notes: as for B2
B4: I-642 (peptide)
peptide: XDIXDEAAFQXFXT
modifications: not fully specified; Ac-PL3-Asp-Ile-B5-Asp-Glu-Ala-Ala-Phe-Gln-S8-Phe-BztA-Thr-NH2; N-terminal acetyl, C-terminal amide; non-natural PL3 (1), B5 (4), S8 (11), BztA (13); staples PL3-B5 and B5-S8 by olefin metathesis
notes: as for B1
B5: I-639 (peptide)
peptide: XDIXDEAAFQXFXS
modifications: not fully specified; Ac-PL3-Asp-Ile-B5-Asp-Glu-Ala-Ala-Phe-Gln-S8-Phe-BztA-Ser-NH2; N-terminal acetyl, C-terminal amide; non-natural PL3 (1), B5 (4), S8 (11), BztA (13); staples PL3-B5 and B5-S8 by olefin metathesis
notes: as for B2
B6: I-640 (peptide)
peptide: XDIXDEAAFQXFXS
modifications: not fully specified; Ac-PL3-Asp-Ile-B5-Asp-Glu-Ala-Ala-Phe-Gln-S8-Phe-BztA-Ser-NH2; N-terminal acetyl, C-terminal amide; non-natural PL3 (1), B5 (4), S8 (11), BztA (13); staples PL3-B5 and B5-S8 by olefin metathesis
notes: as for B1
B7: I-641 (peptide)
peptide: XDIXDEAAFQXFXT
modifications: not fully specified; Ac-PL3-Asp-Ile-B5-Asp-Glu-Ala-Ala-Phe-Gln-S8-Phe-BztA-Thr-NH2; N-terminal acetyl, C-terminal amide; non-natural PL3 (1), B5 (4), S8 (11), BztA (13); staples PL3-B5 and B5-S8 by olefin metathesis
notes: as for B2
B8: I-644 (peptide)
peptide: Ac-[αAllylPro]DI[B5(9)]DEAAFQ[S8]F[Bta]W-NH2
modifications: staple 1-4, 4-11
notes: as for B1
B9: I-617 (peptide)
peptide: XDLXDEAAFTXFXH
modifications: not fully specified; Ac-PL3-Asp-Leu-B5-Asp-Glu-Ala-Ala-Phe-Thr-S8-Phe-BztA-His-NH2; N-terminal acetyl, C-terminal amide; non-natural PL3 (1), B5 (4), S8 (11), BztA (13); staples PL3-B5 and B5-S8 by olefin metathesis
notes: as for B2
B10: I-622 (peptide)
peptide: XDLXDEAAFTXFXQ
modifications: not fully specified; Ac-PL3-Asp-Leu-B5-Asp-Glu-Ala-Ala-Phe-Thr-S8-Phe-BztA-Gln-NH2; N-terminal acetyl, C-terminal amide; non-natural PL3 (1), B5 (4), S8 (11), BztA (13); staples PL3-B5 and B5-S8 by olefin metathesis
notes: as for B2
B11: I-623 (peptide)
peptide: XDLXDEAAFTXFXQ
modifications: not fully specified; Ac-PL3-Asp-Leu-B5-Asp-Glu-Ala-Ala-Phe-Thr-S8-Phe-BztA-Gln-NH2; N-terminal acetyl, C-terminal amide; non-natural PL3 (1), B5 (4), S8 (11), BztA (13); staples PL3-B5 and B5-S8 by olefin metathesis
notes: as for B1
B12: I-613 (peptide)
peptide: XDIXDRAAFQXFXQ
modifications: not fully specified; Ac-PL3-Asp-Ile-B5-Asp-Arg-Ala-Ala-Phe-Gln-S8-Phe-BztA-Gln-NH2; N-terminal acetyl, C-terminal amide; non-natural PL3 (1), B5 (4), S8 (11), BztA (13); staples PL3-B5 and B5-S8 by olefin metathesis
notes: as for B2
B13: I-638 (peptide)
peptide: XDIXDEAAFQXFXP
modifications: not fully specified; Ac-PL3-Asp-Ile-B5-Asp-Glu-Ala-Ala-Phe-Gln-S8-Phe-BztA-Pro-NH2; N-terminal acetyl, C-terminal amide; non-natural PL3 (1), B5 (4), S8 (11), BztA (13); staples PL3-B5 and B5-S8 by olefin metathesis
notes: as for B1
B14: I-614 (peptide)
peptide: XDIXDRAAFQXFXQ
modifications: not fully specified; Ac-PL3-Asp-Ile-B5-Asp-Arg-Ala-Ala-Phe-Gln-S8-Phe-BztA-Gln-NH2; N-terminal acetyl, C-terminal amide; non-natural PL3 (1), B5 (4), S8 (11), BztA (13); staples PL3-B5 and B5-S8 by olefin metathesis
notes: as for B1

In this assay the target is T1, full-length beta-Catenin (Uniprot ID P35222) (Homo sapiens (Human), UniProt P35222 1-781).
T1 construct: Said to be full-length in the fluorescence polarization assay; also called bCat; B-Catenin
T1 sequence: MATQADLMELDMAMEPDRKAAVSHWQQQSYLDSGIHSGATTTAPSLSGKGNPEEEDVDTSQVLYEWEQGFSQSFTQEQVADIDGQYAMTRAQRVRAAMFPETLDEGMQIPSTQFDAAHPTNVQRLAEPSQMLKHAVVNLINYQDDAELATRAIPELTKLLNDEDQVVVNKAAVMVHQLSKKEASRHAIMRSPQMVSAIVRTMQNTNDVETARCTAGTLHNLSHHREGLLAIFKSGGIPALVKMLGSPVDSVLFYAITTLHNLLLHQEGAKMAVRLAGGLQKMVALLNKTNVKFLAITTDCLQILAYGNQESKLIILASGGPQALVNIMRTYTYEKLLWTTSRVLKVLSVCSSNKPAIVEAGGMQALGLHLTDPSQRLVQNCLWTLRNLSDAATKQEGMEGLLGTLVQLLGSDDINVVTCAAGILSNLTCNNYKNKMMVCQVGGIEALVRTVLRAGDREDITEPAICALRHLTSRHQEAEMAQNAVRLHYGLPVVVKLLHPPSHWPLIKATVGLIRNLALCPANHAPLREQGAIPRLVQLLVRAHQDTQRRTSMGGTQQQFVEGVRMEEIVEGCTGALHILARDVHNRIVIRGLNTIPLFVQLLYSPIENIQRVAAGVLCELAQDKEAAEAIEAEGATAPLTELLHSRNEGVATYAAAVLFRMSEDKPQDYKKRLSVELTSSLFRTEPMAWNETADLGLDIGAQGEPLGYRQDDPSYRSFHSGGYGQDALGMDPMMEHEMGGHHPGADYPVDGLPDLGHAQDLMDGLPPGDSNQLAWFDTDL
In words: fluorescence polarization competition; peptide titrated against 10 nM full-length beta-catenin + 10 nM 5FAM-TCF4(10-53) probe. On the procedure: The plate was incubated protected from light for 60 minutes at 20° C. prior to read. Reads were performed on a CLARIOstar plate reader (BMG Labtech) in duplicate, and data were fitted to a 1:1 binding model with hill slope using an in-house script. All provided concentrations are final concentrations.
(In general: Polarisation of emitted light reports the rotation of a fluorescent probe.)
A word on the EC50: it is the concentration that produces a half-maximal response. In the case of B1, the EC50 came out at 135 nM.

As to B2, the half-maximal effective concentration (EC50) stood at 5000 nM.

With Ac-[αAllylPro]DI[B5(16)]DEAAFQ[S8]F[Bta]R-NH2 (staple 1-4, 4-11, Stapled peptide) [I-633], the 50% effective concentration (EC50) was 88 nM.

On to Ac-[αAllylPro]DI[B5(16)]DEAAFQ[S8]F[Bta]L-NH2 (staple 1-4, 4-11, Stapled peptide) [I-634], for which the concentration giving a half-maximal response (EC50) came to 425 nM.

Regarding Ac-[αAllylPro]DI[B5(16)]DEAAFQ[S8]F[Bta]F-NH2 (staple 1-4, 4-11, Stapled peptide) [I-635], the EC50 was found to be 171 nM.

With B3, the EC50 stood at 958 nM.

On to B4, for which the EC50 amounted to 118 nM.

As to Ac-[αAllylPro]DI[B5(16)]DEAAFQ[S8]F[Bta]Y-NH2 (staple 1-4, 4-11, Stapled peptide) [I-636], the EC50 was 198 nM.

B5: the concentration for a half-maximal effect (EC50) is 109 nM.

Take B6: the EC50 turned out to be 87 nM.

For B7, the EC50 was 122 nM.

For B8, the EC50 was 808 nM.

Turning to B9, the EC50 turned out to be 253 nM.

For B10, the EC50 is 230 nM.

B11: the EC50 came to 103 nM.

Regarding B12, the EC50 amounted to 1630 nM.

B13: the concentration for a half-maximal effect (EC50) is 3880 nM.

Regarding B14, the half-maximal effective concentration (EC50) was found to be 1140 nM.
